Experimental findings from patent US20240287190A1 (THERANOTICS, published 2024) are described below.

The EC50 is the concentration needed to bring the measured effect to its halfway point.

The target in assay [1] is T1, recombinant human B7-H3 protein (R&D Systems, Cat #1027-B3-100) (human, UniProt Q5ZPR3-2 29-245).
T1 construct: Bought protein; also called CD276
T1 sequence (looked up): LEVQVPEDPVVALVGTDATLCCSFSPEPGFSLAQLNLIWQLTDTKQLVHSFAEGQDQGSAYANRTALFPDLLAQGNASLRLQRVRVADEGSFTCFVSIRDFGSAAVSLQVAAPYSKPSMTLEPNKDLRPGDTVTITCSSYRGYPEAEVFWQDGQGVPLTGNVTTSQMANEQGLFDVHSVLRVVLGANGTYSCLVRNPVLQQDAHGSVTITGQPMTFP
As to the kind of experiment: ELISA; plate-coated recombinant human B7-H3, bispecific titrated. Here is the method: After coating a plate with recombinant human B7-H3 protein (R&D Systems, Cat #1027-B3-100) (30 μL, 20 nM) in 1×PBS solution, the plate was covered and coated overnight at 2 to 8° C. Thereafter, the wells were washed once with 150 μL PBS per well, and blocked with 120 μL of blocking buffer (1×PBS-T w/3% BSA) per well for 2 hours at room temperature. The blocking buffer was discarded and 30 μL of antibody solution was added using a series of dilution solutions (using the blocking buffer, #1 to #9 bispecific molecules were diluted in serial by two times; 2-fold serial dilution), and reacted at room temperature for 1 hour, then the wells were washed three times with 150 μL of wash buffer per well. 30 μL of HRP conjugate of anti-HA Tag antibody diluted in the blocking buffer was added to each well, and reacted at room temperature for 1 hour. Thereafter, the wells were washed three times with 150 μL of washing buffer per well, the HRP reaction was developed using TMB, the reaction was stopped with 1 N HCl, and then the optical density (OD) was measured at 450 nm.
It was confirmed that #1 to #9 bispecific molecules specifically bind to B7-H3 with excellent binding force.
For orientation: ELISA stands for enzyme-linked immunosorbent assay.

The target of assay [2] is T2, recombinant human TGFβ2 (R&D Systems, Cat #302-B2-010/CF) (human, UniProt P61812 303-414).
T2 construct: Bought protein
T2 sequence (looked up): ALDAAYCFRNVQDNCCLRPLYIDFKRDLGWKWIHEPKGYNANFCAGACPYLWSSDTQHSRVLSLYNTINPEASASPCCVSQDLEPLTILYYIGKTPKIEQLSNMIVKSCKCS
As to the kind of experiment: ELISA; plate-coated bispecific, TGFβ2 titrated (EC50 is a TGFβ2 concentration), biotinylated anti-TGFβ2 detection. Here is the method:
After coating a plate with 1×PBS solution containing #1 to #9 bispecific molecules (30 μL, 0.5 μM), the plate was covered and cultured overnight at 2 to 8° C. Thereafter, the wells were washed once with 150 μL PBS per well, and blocked with 120 µL of blocking buffer (1×PBS-T w/3% BSA) per well for 2 hours at room temperature. The blocking buffer was discarded, recombinant human TGFβ2 (R&D Systems, Cat #302-B2-010/CF) was 4-fold diluted in serial from 30 nM. After adding each diluted solution to the wells by 30 μL per well, it was reacted at room temperature for 1 hour. Then, the wells were washed three times with 150 μL of washing buffer (1×PBS-T) per well, followed by diluting Biotinylated-TGF-beta2 antibody combined with the recombinant human TGFβ2 protein in the blocking buffer. After adding the diluted solution to the wells by 30 μL per well, it was reacted at room temperature for 1 hour. Further, after washing the wells three times with 150 μL of washing buffer (1×PBS-T) per well, 30 μL of streptavidin-HRP diluted in the blocking buffer was added to each well, and reacted at room temperature for 1 hour. After washing the wells three times with 150 μL of washing buffer (1×PBS-T) per well, HRP reaction was developed using TMB, and the reaction was stopped with 30 μL 1 N HCl. Then, the optical density (OD) was measured at 450 nm.

For assay [3], the target named is T3, recombinant human TGFβ1 protein (R&D Systems, Cat #7754-BH-025/CF) (human, UniProt P01137 279-390).
T3 construct: Bought protein
As to the kind of experiment: ELISA; plate-coated TGFβ1, bispecific titrated, anti-human IgG1 Fc-HRP. Here is the method:
(§1) After coating a plate with each of recombinant human TGFβ1 protein (R&D Systems, Cat #7754-BH-025/CF) and TGFβ3 protein (R&D Systems, Cat #8420-B3-025/CF) (30 μL, 0.5 μg/ml) in 1×PBS solution, the plate was covered and cultured overnight at 2 to 8° C. Thereafter, the wells were washed once with 150 μL PBS per well, and blocked with 120 μL of blocking buffer (1×PBS-T w/3% BSA) per well for 2 hours at room temperature. The blocking buffer was discarded and 30 μL solution containing #1 to #9 bispecific molecules (5-fold serial dilution) was added, followed by reaction for 1 hour at room temperature. Then, the wells were washed three times with 150 μL PBS per well. 30 μL of HRP conjugated anti-Human IgG1 Fc Ab diluted in the blocking buffer was added to each well, and reacted at room temperature for 1 hour. Thereafter, the wells were washed three times with 150 μL of washing buffer per well, the HRP reaction was developed using TMB, and the reaction was stopped with 30 μL 1 N HCl. Then, the optical density (OD) was measured at 450 nm.

For assay [4], the target named is T3, recombinant human TGFβ1 protein (R&D …). As to the kind of experiment: bridging ELISA; plate-coated TGFβ1, bispecific titrated, detected with His-tag human B7-H3 and anti-His-HRP. Here is the method: After coating a plate with the recombinant human TGFβ1 protein (30 μL, 0.5 μg/ml) in 1×PBS solution, the plate was covered and cultured overnight at 2 to 8° C. Thereafter, the wells were washed once with 150 μL PBS per well, and blocked with 120 µL of blocking buffer (1×PBS-T w/3% BSA) per well for 2 hours at room temperature. The blocking buffer was discarded and 4-fold diluted antibody solution was added by 30 μL, followed by reaction for 2 hour at room temperature. Then, the wells were washed three times with 150 μL of washing buffer (1×PBS-T) per well.
Thereafter, 30 μL of His-tag human B7-H3 protein diluted in the blocking buffer was added to each well, and cultured at room temperature for 2 hours. Thereafter, the wells were washed three times with 150 μL of washing buffer per well. 30 μL of HRP conjugate of anti-His tag antibody diluted in the blocking buffer was added to each well, and reacted at room temperature for 1 hour. Thereafter, the wells were washed three times with 150 μL of washing buffer per well, the HRP reaction was developed using TMB, and the reaction was stopped with 30 μL 1 N HCl. Then, the optical density (OD) was measured at 450 nm.

The target in assay [5] is T4, recombinant human TGFβ3 protein (R&D Systems, Cat #8420-B3-025/CF) (human, UniProt P10600 301-412).
T4 construct: Bought protein
T4 sequence (looked up): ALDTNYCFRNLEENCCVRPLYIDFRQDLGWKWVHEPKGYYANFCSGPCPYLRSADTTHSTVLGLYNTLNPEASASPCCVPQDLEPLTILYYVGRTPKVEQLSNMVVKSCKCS
As to the kind of experiment: ELISA; plate-coated TGFβ3, bispecific titrated, anti-human IgG1 Fc-HRP. Here is the method: as §1

In assay [6] the target is T3, recombinant human TGFβ1 protein (R&D …). As to the kind of experiment: bridging ELISA on plate-coated TGFβ1, detected with His-tag human B7-H3; paragraph 158 says the mono antibodies are not bound to TGFβ1.

T3 sequence (P01137 279-390 limits assumed): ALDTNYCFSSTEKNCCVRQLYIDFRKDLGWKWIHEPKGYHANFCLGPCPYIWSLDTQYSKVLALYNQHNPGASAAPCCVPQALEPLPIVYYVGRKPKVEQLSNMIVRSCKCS

B1: #1 bispecific molecule (bispecific antibody, human IgG1, N297A)
heavy: not shown
VL: EIVLTQSPGTLSLSPGERATLSCRASQGIGNYLGWYQQKPGQAPRLLIYTASSLQSGIPDRFSGSGSGTDFTLTISRLEPEDFAVYYCQQGYSTPSWTFGQGTKVEIK
notes: also called #1 (TRAP); B7-H3/TGFβ bispecific molecule #1
Turning to B1, the EC50 in assay [1] was 27.5 nM; in assay [2] it was 0.136 nM; in assay [3], 3.84 nM; in assay [4] it was 3.83 nM; in assay [5], 4.72 nM.

B2: #1 (mono) B7-H3 mono antibody free of TGFβ binding portion (antibody, human IgG1, N297A, V domains shown)
VH: EVQLLESGGGLVQPGGSLRLSCAASGFTFSSYAMSWVRQAPGKGLEWVSTITGSGGSTYYADSVKGRFTISRDNSKNTLYLQMNSLRAEDTAVYYCARYKSGAFDIWGQGTLVTVSS
VL: EIVLTQSPGTLSLSPGERATLSCRASQGIGNYLGWYQQKPGQAPRLLIYTASSLQSGIPDRFSGSGSGTDFTLTISRLEPEDFAVYYCQQGYSTPSWTFGQGTKVEIK
B2: in assay [6], the binding result is on record as “no binding”.

B3: #6 bispecific molecule (bispecific antibody, human IgG1, N297A)
heavy: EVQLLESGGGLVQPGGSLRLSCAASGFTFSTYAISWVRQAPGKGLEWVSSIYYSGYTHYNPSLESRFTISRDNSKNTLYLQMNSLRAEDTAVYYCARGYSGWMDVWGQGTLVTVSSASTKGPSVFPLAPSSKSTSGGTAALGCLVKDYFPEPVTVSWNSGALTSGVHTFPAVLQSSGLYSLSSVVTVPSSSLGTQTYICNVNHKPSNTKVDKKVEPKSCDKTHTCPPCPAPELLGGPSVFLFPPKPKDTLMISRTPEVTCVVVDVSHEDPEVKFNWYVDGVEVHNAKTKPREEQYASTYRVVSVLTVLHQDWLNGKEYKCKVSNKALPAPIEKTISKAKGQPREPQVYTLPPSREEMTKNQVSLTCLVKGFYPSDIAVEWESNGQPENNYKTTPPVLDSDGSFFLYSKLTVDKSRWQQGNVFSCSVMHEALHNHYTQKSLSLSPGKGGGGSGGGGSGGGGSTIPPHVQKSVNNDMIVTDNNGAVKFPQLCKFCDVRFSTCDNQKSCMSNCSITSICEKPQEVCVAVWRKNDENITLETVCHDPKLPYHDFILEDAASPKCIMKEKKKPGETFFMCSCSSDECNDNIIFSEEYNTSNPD
VL: QSVLTQPPSASGTPGQRVTISCGGNNIGSKSVHWYQQLPGTAPKLLIYDNNKRPSGVPNRFSGSKSGTSASLAISGLRSEDEADYYCAAWDDSLNVPVFGGGTKLTVL
notes: also called #6 (TRAP); B7-H3/TGFβ bispecific molecule #6
On to B3, for which the EC50 in assay [1] was 1.34 nM; in assay [2], 0.083 nM; in assay [3], 9.08 nM; in assay [4] it was 2.21 nM; in assay [5] it was 4.56 nM.

B4: #9 bispecific molecule (bispecific antibody, human IgG1, N297A)
heavy: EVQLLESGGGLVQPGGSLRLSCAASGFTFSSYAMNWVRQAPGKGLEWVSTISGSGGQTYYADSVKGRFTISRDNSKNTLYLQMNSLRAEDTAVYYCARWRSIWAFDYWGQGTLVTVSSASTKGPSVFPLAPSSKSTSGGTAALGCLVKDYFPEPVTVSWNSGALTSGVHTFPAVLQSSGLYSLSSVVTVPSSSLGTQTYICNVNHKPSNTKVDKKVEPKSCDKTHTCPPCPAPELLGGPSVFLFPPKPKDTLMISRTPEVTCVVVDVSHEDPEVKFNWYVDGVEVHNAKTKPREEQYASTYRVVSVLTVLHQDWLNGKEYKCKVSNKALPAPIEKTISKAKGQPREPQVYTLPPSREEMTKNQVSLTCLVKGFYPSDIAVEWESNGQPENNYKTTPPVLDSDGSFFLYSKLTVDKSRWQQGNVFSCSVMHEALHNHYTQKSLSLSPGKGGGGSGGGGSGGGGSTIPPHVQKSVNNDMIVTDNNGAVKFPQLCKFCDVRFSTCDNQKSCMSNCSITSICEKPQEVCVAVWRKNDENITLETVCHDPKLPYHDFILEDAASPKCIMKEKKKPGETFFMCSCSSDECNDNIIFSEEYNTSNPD
VL: QSVLTQPPSASGTPGQRVTISCSDNNIGSKSVHWYQQLPGTAPKLLIYDNNKRPSGVPDRFSGSKSGTSASLAISGLRSEDEADYYCGTWDDSLSGPVFGGGTKLTVL
notes: also called #9 (TRAP); B7-H3/TGFβ bispecific molecule #9
In the case of B4, the EC50 in assay [1] is 6.11 nM; in assay [2], 0.143 nM; in assay [3], 3.94 nM; in assay [4] it was 1.56 nM; in assay [5] it was 5.98 nM.

B5: #7 bispecific molecule (bispecific antibody, human IgG1, N297A)
heavy: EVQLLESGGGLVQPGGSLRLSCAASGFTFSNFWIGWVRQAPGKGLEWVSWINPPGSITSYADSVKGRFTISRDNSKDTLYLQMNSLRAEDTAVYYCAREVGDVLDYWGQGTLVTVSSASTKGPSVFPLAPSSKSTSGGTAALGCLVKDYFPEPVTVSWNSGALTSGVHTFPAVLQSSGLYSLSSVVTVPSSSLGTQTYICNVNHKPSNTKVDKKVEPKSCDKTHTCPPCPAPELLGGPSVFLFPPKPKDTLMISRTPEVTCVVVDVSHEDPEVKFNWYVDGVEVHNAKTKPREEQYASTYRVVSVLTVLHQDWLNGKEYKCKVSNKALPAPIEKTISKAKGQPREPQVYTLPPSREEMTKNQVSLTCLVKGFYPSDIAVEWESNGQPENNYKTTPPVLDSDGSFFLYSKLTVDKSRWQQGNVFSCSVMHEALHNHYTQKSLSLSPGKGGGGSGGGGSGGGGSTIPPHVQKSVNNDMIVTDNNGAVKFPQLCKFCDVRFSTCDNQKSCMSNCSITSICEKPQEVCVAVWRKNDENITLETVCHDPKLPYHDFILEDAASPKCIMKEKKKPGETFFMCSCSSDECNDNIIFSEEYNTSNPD
VL: QSVLTQPPSASGTPGQRVTISCTGTSSDIGRYNYVSWYQQLPGTAPKLLIYRNTQRPSGVPDRFSGSKSGTSASLAISGLRSEDEADYYCGTWDSSLNAYVFGGGTKLTVL
notes: also called #7 (TRAP); B7-H3/TGFβ bispecific molecule #7
As for B5, the EC50 in assay [1] is 12.2 nM; in assay [2], 0.12 nM; in assay [3], 24.8 nM; in assay [4], 3.15 nM; in assay [5], 8.09 nM.

B6: #5 bispecific molecule (bispecific antibody, human IgG1, N297A)
heavy: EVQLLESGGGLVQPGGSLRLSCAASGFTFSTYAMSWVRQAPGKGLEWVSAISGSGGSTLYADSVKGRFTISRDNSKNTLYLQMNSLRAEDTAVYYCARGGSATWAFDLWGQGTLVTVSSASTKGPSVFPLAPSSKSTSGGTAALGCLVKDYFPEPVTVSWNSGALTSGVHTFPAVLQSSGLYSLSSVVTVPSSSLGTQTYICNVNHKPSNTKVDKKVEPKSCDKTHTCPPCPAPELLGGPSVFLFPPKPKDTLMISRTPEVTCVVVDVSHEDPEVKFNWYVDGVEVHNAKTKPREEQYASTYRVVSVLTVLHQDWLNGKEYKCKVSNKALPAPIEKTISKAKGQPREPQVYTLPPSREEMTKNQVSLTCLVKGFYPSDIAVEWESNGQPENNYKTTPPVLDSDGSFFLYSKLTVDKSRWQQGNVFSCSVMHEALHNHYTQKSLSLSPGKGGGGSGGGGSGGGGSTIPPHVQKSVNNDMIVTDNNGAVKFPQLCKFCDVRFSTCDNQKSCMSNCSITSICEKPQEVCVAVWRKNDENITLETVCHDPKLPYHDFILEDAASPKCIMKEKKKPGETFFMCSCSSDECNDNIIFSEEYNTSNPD
VL: QSVLTQPPSASGTPGQRVTISCSGSSSNIGSNYVYWYQQLPGTAPKLLIYRNNQRPSGVPDRFSGSKSGTSASLAISGLRSEDEADYYCGTWDSSLSGVVFGGGTKLTVL
notes: also called #5 (TRAP); B7-H3/TGFβ bispecific molecule #5
Consider B6, for which the EC50 came to 10.2 nM in assay [1]; 0.143 nM in assay [2]; 3.62 nM in assay [3]; 3.74 nM in assay [4]; 3.14 nM in assay [5].

B7: #4 bispecific molecule (bispecific antibody, human IgG1, N297A)
heavy: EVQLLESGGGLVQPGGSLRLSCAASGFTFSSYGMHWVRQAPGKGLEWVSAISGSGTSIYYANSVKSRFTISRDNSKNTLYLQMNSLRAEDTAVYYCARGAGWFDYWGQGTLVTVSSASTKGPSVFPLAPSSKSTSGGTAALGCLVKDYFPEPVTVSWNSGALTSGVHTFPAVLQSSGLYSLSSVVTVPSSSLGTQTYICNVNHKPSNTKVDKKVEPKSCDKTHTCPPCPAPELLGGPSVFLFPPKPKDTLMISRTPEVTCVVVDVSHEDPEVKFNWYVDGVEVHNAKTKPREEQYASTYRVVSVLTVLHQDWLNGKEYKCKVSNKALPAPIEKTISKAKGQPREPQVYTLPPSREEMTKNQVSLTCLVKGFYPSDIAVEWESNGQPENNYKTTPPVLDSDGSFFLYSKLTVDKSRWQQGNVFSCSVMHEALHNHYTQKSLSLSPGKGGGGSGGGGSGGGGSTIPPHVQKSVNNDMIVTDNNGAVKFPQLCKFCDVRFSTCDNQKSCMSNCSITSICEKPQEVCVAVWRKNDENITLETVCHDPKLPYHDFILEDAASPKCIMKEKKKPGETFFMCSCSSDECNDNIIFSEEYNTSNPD
VL: QSVLTQPPSASGTPGQRVTISCSGSTSNIGSNTVNWYQQLPGTAPKLLIYGKNIRPNGVPDRFSGSKSGTSASLAISGLHSEDEADYYCQSYDSSLSGWVFGGGTKLTVL
notes: also called #4 (TRAP); B7-H3/TGFβ bispecific molecule #4
For the molecule B7, the EC50 in assay [1] was determined as 29.3 nM; in assay [2], 0.13 nM; in assay [3] it was 2.02 nM; in assay [4] it was 1.96 nM; in assay [5], 3.32 nM.

B8: #8 bispecific molecule (bispecific antibody, human IgG1, N297A)
heavy: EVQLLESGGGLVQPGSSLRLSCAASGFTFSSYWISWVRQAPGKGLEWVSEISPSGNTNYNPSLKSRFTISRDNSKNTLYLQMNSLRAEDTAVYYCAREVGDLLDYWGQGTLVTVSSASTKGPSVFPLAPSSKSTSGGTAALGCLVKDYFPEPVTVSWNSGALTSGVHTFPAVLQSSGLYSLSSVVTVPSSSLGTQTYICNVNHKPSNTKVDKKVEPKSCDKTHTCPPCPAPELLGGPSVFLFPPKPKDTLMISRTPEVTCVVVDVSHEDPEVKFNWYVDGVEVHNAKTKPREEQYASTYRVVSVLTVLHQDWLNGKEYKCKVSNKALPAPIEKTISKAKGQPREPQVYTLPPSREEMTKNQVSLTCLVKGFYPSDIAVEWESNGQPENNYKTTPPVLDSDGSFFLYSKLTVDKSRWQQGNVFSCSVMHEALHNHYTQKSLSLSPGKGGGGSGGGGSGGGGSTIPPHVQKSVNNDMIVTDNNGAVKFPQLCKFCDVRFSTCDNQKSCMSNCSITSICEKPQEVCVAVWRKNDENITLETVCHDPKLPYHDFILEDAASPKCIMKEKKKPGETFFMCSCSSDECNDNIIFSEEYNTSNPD
VL: QSVLTQPPSASGTPGQRVTISCSGSNIGNNYVSWYQQLPGTAPKLLIYQDSKRPSGVPDRFSGSKSGTSASLAISGLRSEDEADYYCLVWDRSSDHFVFGGGTKLTVL
notes: also called #8 (TRAP); B7-H3/TGFβ bispecific molecule #8
Take B8: the EC50 was found to be 1.72 nM in assay [1]; 2.08 nM in assay [2]; 3.41 nM in assay [3]; 1.98 nM in assay [4]; 2.94 nM in assay [5].

B9: #3 bispecific molecule (bispecific antibody, human IgG1, N297A)
heavy: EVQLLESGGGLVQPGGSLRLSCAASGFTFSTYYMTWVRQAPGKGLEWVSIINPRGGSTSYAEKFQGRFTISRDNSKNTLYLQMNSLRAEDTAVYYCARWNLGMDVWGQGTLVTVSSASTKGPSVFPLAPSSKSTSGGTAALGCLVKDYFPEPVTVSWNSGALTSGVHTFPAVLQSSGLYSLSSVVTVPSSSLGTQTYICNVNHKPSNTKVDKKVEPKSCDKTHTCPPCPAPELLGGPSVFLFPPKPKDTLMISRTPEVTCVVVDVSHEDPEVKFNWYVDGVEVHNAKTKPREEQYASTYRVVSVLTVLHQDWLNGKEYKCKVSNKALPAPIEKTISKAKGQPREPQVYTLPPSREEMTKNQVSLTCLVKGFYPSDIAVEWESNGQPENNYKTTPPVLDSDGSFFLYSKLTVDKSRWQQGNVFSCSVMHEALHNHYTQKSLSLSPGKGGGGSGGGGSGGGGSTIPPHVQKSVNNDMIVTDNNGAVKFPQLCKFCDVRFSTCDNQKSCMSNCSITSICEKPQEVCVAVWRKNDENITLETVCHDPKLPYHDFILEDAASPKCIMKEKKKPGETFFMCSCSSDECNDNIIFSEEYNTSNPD
VL: EIVLTQSPGTLSLSPGERATLSCRVSQSISSYLNWYQQKPGQAPRLLIYDASHRATGIPDRFSGSGSGTDFTLTISRLEPEDFAVYYCQQYYAPSVTFGQGTKVEIK
notes: also called #3 (TRAP); B7-H3/TGFβ bispecific molecule #3
In the case of B9, the EC50 in assay [1] was 5.94 nM; in assay [2], 0.076 nM; in assay [3], 4.39 nM; in assay [4], 2.11 nM; in assay [5] it was 3.8 nM.

B10: #2 bispecific molecule (bispecific antibody, human IgG1, N297A)
heavy: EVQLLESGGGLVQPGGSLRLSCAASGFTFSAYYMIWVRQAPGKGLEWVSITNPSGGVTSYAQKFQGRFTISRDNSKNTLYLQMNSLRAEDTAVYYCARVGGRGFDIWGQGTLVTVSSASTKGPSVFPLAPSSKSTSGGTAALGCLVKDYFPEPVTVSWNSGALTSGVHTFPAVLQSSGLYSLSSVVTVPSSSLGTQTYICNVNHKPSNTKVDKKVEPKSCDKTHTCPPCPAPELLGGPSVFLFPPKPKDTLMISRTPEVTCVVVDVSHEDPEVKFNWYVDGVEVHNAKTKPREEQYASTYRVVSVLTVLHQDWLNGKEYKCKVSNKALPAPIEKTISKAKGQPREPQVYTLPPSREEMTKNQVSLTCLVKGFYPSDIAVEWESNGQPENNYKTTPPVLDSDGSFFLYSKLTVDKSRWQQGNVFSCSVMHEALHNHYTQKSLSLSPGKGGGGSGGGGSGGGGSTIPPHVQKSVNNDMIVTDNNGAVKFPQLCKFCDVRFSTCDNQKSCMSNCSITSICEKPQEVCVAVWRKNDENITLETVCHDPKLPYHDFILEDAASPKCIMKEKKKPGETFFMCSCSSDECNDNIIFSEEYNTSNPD
VL: EIVLTQSPGTLSLSPGERATLSCHASQGISNYVAWYQQKPGQAPRLLIYDASNRATGIPDRFSGSGSGTDFTLTISHLEPEDFAVYYCQQSYSTLLTFGQGTKVEIK
notes: also called #2 (TRAP); B7-H3/TGFβ bispecific molecule #2
In the case of B10, the EC50 came out at 3.19 nM in assay [1]; 0.14 nM in assay [2]; 5.83 nM in assay [3]; 1.43 nM in assay [4]; 7.92 nM in assay [5].

B11: #2 (mono) B7-H3 mono antibody free of TGFβ binding portion (antibody, human IgG1, N297A, V domains shown)
VH: EVQLLESGGGLVQPGGSLRLSCAASGFTFSAYYMIWVRQAPGKGLEWVSITNPSGGVTSYAQKFQGRFTISRDNSKNTLYLQMNSLRAEDTAVYYCARVGGRGFDIWGQGTLVTVSS
VL: EIVLTQSPGTLSLSPGERATLSCHASQGISNYVAWYQQKPGQAPRLLIYDASNRATGIPDRFSGSGSGTDFTLTISHLEPEDFAVYYCQQSYSTLLTFGQGTKVEIK
Consider B11, for which the binding result in assay [6] is reported as “no binding”.
